{"source": "paper PMC8189435", "about": "“Timer-based proteomic profiling of the ubiquitin-proteasome system reveals a substrate receptor of the GID ubiquitin ligase” (Molecular Cell, 2021)", "binders": {"B1": {"name": "HA-Gid11 (Ylr149c/Gid11) (natural protein, S. cerevisiae, UniProt Q99296 1-730, looked up)", "chain": "MTIDGTGQSKEALQDERLNTGSDKVYQNYMMPALELYDAKVSINHWQLRDCIKPGSMNQSKLYYIYDHSIRVLDTDSSVLRSPVRRHNSIQPSNSGKNSTEKTSTKGSRTTGSYISKNLHVPSEKLVEFNFKPRCFTELNGLTVCGGLIGSDDKGFPSNWNRLAQDANISLPPPSQPINISKNISFPINSHYSNPNIWKGIVEFYNQETDTMMTFTLGQFINNCVTLYDRASMQFDLFACNNDGHLYQCDVSNRDVTLVKRYADLKFPLNNASLSHDGQTMVVSGDSNKFAVYNQNELTNQFSLHYDNHPSWGSSVNRVRRIPRFALPDESEYIENIYEAPNSDHGFYNSFSENDLQFATVFQNGTCAIYDIRNMATPMAEISSTRPHSHNGAFRVCRFSYGLDDLLFISEHQGRVHVVDTRNYVNHQVIVIPDKVNMEYINERKHNTNHNFTTNNNNENESNDSKNELQGADYRSLSRRRFSLPSMPNVTTEPWITMAQRIPKKYLEPQILPFPKVMDKISNESVLFSTKGSSSSDVAHPYKRRCSFRVRRVSTSAPTADYSNNNVNASLGTPAADSIATSSSNSAPQNLIDPLILSHQQASNDVFEDDEYYEAYNDVHSTYRVSSDYHGVSARAFESFLRPPSTPDLPSDDDNFAANSRNNRGTSNFLRRPVITTQESNEFSEENNISGIDWVEDRNGSSLIIGTDYGIMRWNINSWARRSFSSYDLC", "notes": "Gid11 (Ylr149c), S. cerevisiae, WD40/YVTN repeat-like domain protein; the last 4 residues are printed as 727-730, so the protein ends at residue 730; also called HA-YLR149C; source: S. cerevisiae, overexpressed from plasmid pRS413-GPDpr-HA-YLR149C, in lysate; not shown: HA, N-terminal, kept"}}, "biological_target": "T1, Gid1-tFT (chromosomally tagged Gid1-mCherry-sfGFP) (S. cerevisiae, UniProt P53076 1-958)", "T1 construct": "Gid1, subunit of the GID ubiquitin ligase complex, S. cerevisiae; endogenous locus tagged with mCherry-sfGFP; It was precipitated with anti-GFP antibodies from lysate, so other GID subunits are likely present with it; source: S. cerevisiae, chromosomally tagged (strain YMaM1083; YLZY0091 for gid5Δ), in lysate; not shown: mCherry-sfGFP timer (tFT), C-terminal, kept", "T1 sequence (looked up)": "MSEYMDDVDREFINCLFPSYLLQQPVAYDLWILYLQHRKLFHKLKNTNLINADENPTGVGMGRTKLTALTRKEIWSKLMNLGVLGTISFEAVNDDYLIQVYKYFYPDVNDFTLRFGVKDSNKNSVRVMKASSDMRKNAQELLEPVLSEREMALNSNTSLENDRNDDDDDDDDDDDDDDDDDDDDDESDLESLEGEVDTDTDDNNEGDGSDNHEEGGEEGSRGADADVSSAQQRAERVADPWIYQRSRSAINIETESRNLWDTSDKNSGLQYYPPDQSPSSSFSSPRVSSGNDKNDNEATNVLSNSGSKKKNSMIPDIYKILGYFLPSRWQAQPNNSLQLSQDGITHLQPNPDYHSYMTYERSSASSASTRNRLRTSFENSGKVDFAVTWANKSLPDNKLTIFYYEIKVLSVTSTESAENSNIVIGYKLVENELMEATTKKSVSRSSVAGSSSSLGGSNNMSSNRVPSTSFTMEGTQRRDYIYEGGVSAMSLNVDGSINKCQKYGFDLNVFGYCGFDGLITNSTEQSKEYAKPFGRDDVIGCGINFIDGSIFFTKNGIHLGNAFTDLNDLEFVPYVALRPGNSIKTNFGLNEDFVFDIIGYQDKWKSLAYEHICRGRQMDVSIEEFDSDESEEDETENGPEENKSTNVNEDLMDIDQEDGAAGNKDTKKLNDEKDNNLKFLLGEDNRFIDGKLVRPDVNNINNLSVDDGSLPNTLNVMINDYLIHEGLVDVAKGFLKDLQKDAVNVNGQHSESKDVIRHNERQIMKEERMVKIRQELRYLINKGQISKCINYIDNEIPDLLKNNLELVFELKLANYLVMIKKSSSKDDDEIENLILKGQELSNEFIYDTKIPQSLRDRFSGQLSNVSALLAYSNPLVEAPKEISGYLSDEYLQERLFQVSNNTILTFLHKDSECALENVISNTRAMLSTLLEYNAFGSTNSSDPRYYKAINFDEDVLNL", "experiment": "co-IP; tFT-tagged bait precipitated with rabbit anti-GFP on Dynabeads from yeast lysates (log phase, SC medium lacking histidine, 2% glucose); IP buffer 50 mM Tris-HCl pH 7.5, 100 mM NaCl, 1% Triton X-100, 2 mM EDTA; 2 h at 4°C; HA-tagged prey detected by anti-HA blot; WT or gid5Δ cells", "details": "partners not purified"}
{"binder": "B1", "values": [{"measurement": "relative amount of co-immunoprecipitated HA-Gid11, normalized to precipitated Gid1-tFT, in gid5Δ cells compared with the WT", "result": "0.43 relative to WT"}]}
